From PMC8062686, “Structural variation at the maize WUSCHEL1 locus alters stem cell organization in inflorescences”

Target: T1, GST-ZmRR8 DNA-binding domain (Zea mays, UniProt Q9AV93 191-262)
T1 sequence: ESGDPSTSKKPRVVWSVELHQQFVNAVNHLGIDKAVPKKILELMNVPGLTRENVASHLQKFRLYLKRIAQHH
Assay: EMSA; 1x LightShift Binding Buffer, 50 ng/uL poly(dI/dC), 2.5% glycerol, room temperature 20 min, 6% DNA retardation gel; pH and salt not given
Conditions: protein: recombinant; tags: GST (pET-60-DEST)

B1: m119 bp (three AGATAT to TTTTTT) (dsDNA)
DNA 1: TAATTTTTTCGTCGTATCCCATGATCCTTCGTGTGTCAACTTCACTTGTCTCTCTCCAAATTTTTTCGTCGTATCCCATGATCCTTCCTCCCCTCCAAATTTTTTCGTCGTATCACAGTA
DNA 2: TACTGTGATACGACGAAAAAATTTGGAGGGGAGGAAGGATCATGGGATACGACGAAAAAATTTGGAGAGAGACAAGTGAAGTTGACACACGAAGGATCATGGGATACGACGAAAAAATTA
Question: Does B1 bind?
Answer: Result: no binding
